Source: patent EP4634231A1 (dated 2025)

B1: 89Zr-DFO-M16Ab, M16Ab conjugated with p-SCN-Bn-DFO and radiolabeled with 89Zr (antibody, V domains shown)
VH: QVQLVESGGGVVQPGGSLRLSCAASGFTFSTYGMHWVRQAPGKGLEWVAVISYDGSNKYYADSVKGRFTISRDNTNNSLYLQMSGLRAEDSAVYYCAKDVYGDFAVDSWGQGTLVTVSS
VL: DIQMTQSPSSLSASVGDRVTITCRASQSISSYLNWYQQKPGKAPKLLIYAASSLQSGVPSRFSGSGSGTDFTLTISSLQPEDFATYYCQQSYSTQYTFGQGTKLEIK
modifications: p-SCN-Bn-DFO chelator loaded with 89Zr; sites not stated
notes: also called 89Zr-DFO-M16Ab1; 89Zr-M16Ab1
B2: DFO-M16Ab1, M16Ab1 IgG1 conjugated with p-SCN-Bn-DFO (antibody, V domains shown)
VH: B1 VH
VL: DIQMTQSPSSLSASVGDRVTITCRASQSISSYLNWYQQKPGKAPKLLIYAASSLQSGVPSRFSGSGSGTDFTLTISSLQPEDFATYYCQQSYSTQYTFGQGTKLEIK
modifications: p-SCN-Bn-DFO (deferoxamine) conjugated, average of two DFO molecules per antibody; sites not stated
notes: also called DFO-MUC16 Ab 1; DFO-MUC16 AB1
B3: M16Ab1, fully human anti-MUC16 monoclonal antibody, full-length IgG1 (antibody, V domains shown)
VH: B1 VH
VL: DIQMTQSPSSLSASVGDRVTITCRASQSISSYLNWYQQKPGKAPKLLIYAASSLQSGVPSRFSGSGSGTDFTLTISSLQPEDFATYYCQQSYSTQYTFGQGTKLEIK
notes: also called MUC16 Ab1; MUC-16 Ab1

Experiments:
[1] = target: T1, MUC-16 (CA125) expressed on SW1990 and OVCAR3 cancer cells (human, UniProt Q8WXI7 1-14507); assay: flow cytometry on MUC16 expressing cancer cells
T1 construct: whole, on cells

[2] = target: T1, MUC-16 (CA125) expressed on SW1990 and …; assay: flow cytometry saturation binding (MFI against concentration) on MUC-16 expressing SW1990 and OVCAR3 cells

| Binder | EC50 [1] [nM] | EC50 [2] [nM] | Kd [2] [nM] |
| --- | --- | --- | --- |
| B1 | 10 | – | – |
| B2 | – | 10.3 | 12.7 |
| B3 | – | 9.1 | 10.9 |
